Measured values reported in patent publication US20070248609A1.

Biological target: T1, Activin A (endogenous, mouse, released after LPS) (mouse) (UniProt Q04998)
T1 sequence (looked up): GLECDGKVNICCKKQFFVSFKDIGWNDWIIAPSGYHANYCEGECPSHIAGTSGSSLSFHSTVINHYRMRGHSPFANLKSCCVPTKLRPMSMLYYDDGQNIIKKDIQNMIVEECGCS
Test: cell-based or functional assay

IL-6 peak concentration in mice given 1 µg rhfollistatin-288 before LPS, against LPS alone: 2 fold
IL-6 release in mice given 0.5 µg follistatin before LPS (LPS alone ≈20000 pg/ml): 30000 pg/mL
IL-6 release in mice given 0.5 µg follistatin before LPS, against LPS alone: 50%
IL-6 release in mice given 1 µg follistatin before LPS (LPS alone ≈20000 pg/ml): 50000 pg/mL
IL-6 release in mice given 1 µg follistatin before LPS, against LPS alone: 250%
IL-6 release in mice given 2 µg follistatin before LPS (LPS alone ≈20000 pg/ml): 20000 pg/mL
TNFα release in plasma of mice given 1 µg rhfollistatin-288 30 min before LPS (% suppression): 50
Substance: Recombinant human follistatin-288 (from UniProt P19883 30-317)
